Reference: patent US11473073B2, “Aminopeptidases for protein hydrolyzates” (DUPONT NUTRITION BIOSCIENCES APS, priority 2015, dated 2022)

Assays:
Format in all cases: biochemical
[1] = tested on: gluten; assay: Glutamic acid liberation in gluten hydrolyses (pH and temperature optimum)
Method: The liberation of glutamic acid is an important quality parameter in vegetable protein hydrolyses such as soy or gluten hydrolyses. The liberated glutamic acid can be perceived as the so-called “umami-flavor”. In order to determine the effect of the initially applied pH in gluten hydrolyses in terms of glutamic acid and glutamine liberation, the initial pH of a gluten hydrolyses was adjusted just after the liquefaction of the gluten after 15-30 min with 1 M HCl. Gluten was treated with Glutaminase (Amano, Japan). In addition, gluten was treated with FoodPro Alkaline Protease, FoodPro PNL as well as PepN 2 (Neosartorya fischeri). After 20 hr, the hydrolysis was terminated employing ultrafiltration (10 kDa cut-off, Sartorius Stedium Biotech, Göttingen, Germany). The permeate was applied for the enzymatic glutamic acid analyses (enzymatic L-glutamic acid analysis kit, Roche, Mannheim, Germany).
In order to determine the effect of the applied temperature during the gluten hydrolyses in terms of glutamic acid and glutamine liberation, the initial pH was adjusted with 1 M HCl to pH 7.0 just after the liquefaction of the gluten suspension after 15-30 min. Gluten was combined with Glutaminase (Amano, Japan). In addition, gluten was combined FOODPRO® Alkaline Protease, FOODPRO® PNL as well as PepN 2 (Neosartorya fischeri). […]

[2] = tested on: whey protein isolate (WPI); assay: Degree of hydrolysis of WPI with endopeptidases plus PepN; conditions: for Degree of hydrolysis: 50° C., 18 hr
Method: Enzyme activities of PepN 1 Lactobacillus helveticus ATCC® 12046, PepN 1 Aspergillus oryzae and from PepN 2 from Aspergillus clavatus (TRI035) were determined according to Stressler, Eisele et al. (2013, infra). PepN 1 from L. helveticus was expressed and purified as described by Stressler, Eisele et al. (2013, infra).
The PepN 1 and 2 aminopeptidases were standardized to the activity range of 2.5-200 nkat*mL^−1. For protein hydrolyses, 1% (w/wWPI) FOODPRO® Alkaline Protease (DuPont, Brabrand, Denmark) and 1% (w/wWPI) FOODPRO® PNL (DuPont, Brabrand, Denmark) were added to the whey protein isolate suspension (WPI; LACPRODAN® 9224, Arla Ingredients, Viby, Denmark) with an initial pH of 7.0. Following the endopeptidases addition, the WPI was mixed and 200 μL were transferred to each well of a 96-well microtiter plate. The hydrolysis was conducted at 50° C. without pH control and terminated after 18 hr by addition of 20 μL of 2 M TCA. Prior to the determination of the DH (Nielsen, Petersen et al., 2001, infra), all samples were filtered 0.22 μm.

[3] = tested on: soy; assay: Degree of hydrolysis in soy hydrolyses with and without 185 mM NaCl; parameters: Degree of hydrolysis: unit not given here; conditions: for Degree of hydrolysis: SOY, 50° C., 18 hr
Method: (§1) Sodium chloride is frequently applied in the food industry to reduce the microbial contamination risk in protein hydrolyses. Pre-hydrolysed 10% (w/w) soy (SUPRO® 760, DuPont, Brabrand, Denmark) and gluten (Sigma-Aldrich, Schnelldorf, Germany) was prepared by addition of 1% (w/wprotein) FOODPRO® Alkaline Protease (DuPont, Brabrand, Denmark) and 1% (w/wprotein) FOODPRO® PNL (DuPont, Brabrand, Denmark). The hydrolyses were performed at 50° C. at pH 7.0 (without pH control) for 18 hr (heat inactivation after 18 hr; 90° C.; 10 min). Subsequently, the hydrolyses were divided in sodium chloride containing (185 mM) and non-salt containing hydrolyses. 150 μL of each pre-hydrolysed protein suspension was combined with differently standardized Aspergillus clavatus PepN 2 as indicated in Table 3. The hydrolyses were conducted at 50° C. without pH control and terminated after 18 hr by addition of 20 μL of 2 M TCA. Prior to the determination of the DH (Nielsen, Petersen et al. 2001, infra), all samples were filtered 0.22 μm.

[4] = tested on: gluten; assay: Degree of hydrolysis in gluten hydrolyses with and without 185 mM NaCl; parameters: Degree of hydrolysis: unit not given here; conditions: for Degree of hydrolysis: Gluten, 50° C., 18 hr
Method: as §1

[5] = 185 mM NaCl, protein concentration 0.2 mg/mL
[6] = 185 mM NaCl, protein concentration 0.3 mg/mL
[7] = 185 mM NaCl, protein concentration 0.4 mg/mL
[8] = 185 mM NaCl, protein concentration 0.5 mg/mL
[9] = reference (no salt), protein concentration 0.2 mg/mL
[10] = reference (no salt), protein concentration 0.3 mg/mL
[11] = reference (no salt), protein concentration 0.4 mg/mL
[12] = reference (no salt), protein concentration 0.5 mg/mL

B1: TRI031: fungal aminopeptidase type-2 (pepN_2), NCBI XP_001258675 from Neosartorya fischeri NRRL 181, expressed in Trichoderma reesei (protein)
chain: MQTFGAFLVSFLAASGLAAANGPGWDWKPPVHPKVLPQMIHLWDLMHGAQKLEDFAYAYPERNRVFGGPAHEDTVNYLYRELKKTGYYDVYKQPQVHQWTRADQALTVDGKSYVATTMTYSPSVNVTAPLAVVNNLGCVESDYPADLKGKIALVSRGECPFATKSVLSAKAGAAAALVYNNIEGSMAGTLGGPTSELGPYAPIAGISLADGQALIQMIQAGTVTANLWIDSKVENRTTYNVIAQTKGGDPNNVVALGGHTDSVEAGPGINDDGSGIISNLVVAKALTRFSVKNAVRFCFWTAEEFGLLGSSYYVNSLNATEKAKIRLYLNFDMIASPNYALMIYDGDGSAFNLTGPAGSAQIERLFEDYYKSIRKPFVPTEFNGRSDYEAFILNGIPAGGIFTGAEAIKTEEQAKLFGGQAGVALDANYHAKGDNMTNLNREAFLINSKATAFAVATYANSLDSIPSRNMSTVVKRSQLEQAKKSTPHTHTGGTGCYKDRVEQ
modifications: Synthetic peptide with leader sequence
notes: fungal aminopeptidase type-2 (pepN_2), NCBI XP_001258675 from Neosartorya fischeri NRRL 181, expressed in Trichoderma reesei
In the case of B1, the “temperature at which PepN 2 performed most efficient (glutamic acid liberation)” value ([1]; gluten hydrolysis 20 h, initial pH 7.0, range 40-60° C., FIG. 3) is reported as 60 °C and the “pH range in which PepN 2 performed more efficient (glutamic acid liberation)” value ([1]; gluten hydrolysis 20 hr with Glutaminase, FoodPro Alkaline Protease, FoodPro PNL, compared to pH 6.0, FIG. 2) is reported as 7.0-9.0.

B2: TRI035: fungal aminopeptidase type-2 (pepN_2), NCBI XP_001273779 from Aspergillus clavatus NRRL 1 (protein)
chain: MQTFGAFLVSFLAASGLAAANAPGGPGGHGRKLPVNPKTFPNEIRLKDLLHGSQKLEDFAYAYPERNRVFGGQAHLDTVNYLYRELKKTGYYDVYKQPQVHQWTRADQSLTLGGDSIQASTMTYSPSVNVTAPLSLVSKLGCAEGDYSADVKGKIALVSRGECSFAQKSVLSAKAGAVATIVYNNVDGSLAGTLGGATSELGPYSPIIGITLAAGQDLVARLQAAPTEVSLWIDSKVENRTTYNVIAQTKGGDPNNVVALGGHTDSVENGPGINDDGSGVISNLVVAKALTRYSVKNAVRFCFWTAEEFGLLGSNYYVDNLSPAELAKIRLYLNFDMIASPNYALMIYDGDGSAFNLTGPPGSAQIESLFENYYKSIKQGFVPTAFDGRSDYEGFILKGIPAGGVFTGAESLKTEEQARLFGGQAGVALDANYHAKGDNMTNLNHKAFLINSRATAFAVATYANNLSSIPPRNATVVKRESMKWTKREEPHTHGADTGCFASRVKE
modifications: Synthetic peptide with leader sequence
Work on B2 yielded a Degree of hydrolysis ([2]; PepN dosage 2.5 nkat/mL in stock solution) of 15%, a Degree of hydrolysis ([2]; PepN dosage 5 nkat/mL in stock solution) of 17% and a Degree of hydrolysis ([2]; PepN dosage 10 nkat/mL in stock solution) of 17%. The Degree of hydrolysis ([2]; PepN dosage 25 nkat/mL in stock solution) was 20%, the Degree of hydrolysis ([2]; PepN dosage 50 nkat/mL in stock solution) was 24% and the Degree of hydrolysis ([2]; PepN dosage 75 nkat/mL in stock solution) was 26%. The Degree of hydrolysis ([2]; PepN dosage 100 nkat/mL in stock solution) was 35%, the Degree of hydrolysis ([2]; PepN dosage 200 nkat/mL in stock solution) was 36% and the “higher DH than the PepN 1 aminopeptidases” value ([2]; at the two highest dosages) was “at least 25%”. It also gave a Degree of hydrolysis [3, 5] of 10, a Degree of hydrolysis [3, 6] of 11 and a Degree of hydrolysis [3, 7] of 11. The Degree of hydrolysis [3, 8] was 12, the Degree of hydrolysis [3, 9] was 11 and the Degree of hydrolysis [3, 10] was 12. For the same molecule, the Degree of hydrolysis [3, 11] was 12, the Degree of hydrolysis [3, 12] was 12 and the “influence of 185 mM NaCl on the determined degree of hydrolysis” value ([3]; soy hydrolyses) was “no influence”. It also gave a Degree of hydrolysis ([4]; 185 mM NaCl, protein concentration 0.1 mg/mL) of 14, a Degree of hydrolysis [4, 5] of 15 and a Degree of hydrolysis ([4]; 185 mM NaCl, protein concentration 0.25 mg/mL) of 15. The Degree of hydrolysis [4, 6] was 16, the Degree of hydrolysis [4, 7] was 17 and the Degree of hydrolysis [4, 8] was 18. For the same molecule, the Degree of hydrolysis ([4]; reference (no salt), protein concentration 0.1 mg/mL) was 14, the Degree of hydrolysis [4, 9] was 16 and the Degree of hydrolysis ([4]; reference (no salt), protein concentration 0.25 mg/mL) was 17. For the same molecule, the Degree of hydrolysis [4, 10] was 16, the Degree of hydrolysis [4, 11] was 17 and the Degree of hydrolysis [4, 12] was 18. The “influence of 185 mM NaCl on the determined degree of hydrolysis” value ([4]; gluten hydrolyses) was “no influence”.
